# T1: rSAS1R (Mus musculus, UniProt Q6HA09)
# T1 construct: The mature rSAS1R (414 residues); 20 vector-encoded residues including His6 (pET-28b) (N); made in house; host or cells: E. coli BL21DE3
# T1 sequence (Q6HA09 22-435): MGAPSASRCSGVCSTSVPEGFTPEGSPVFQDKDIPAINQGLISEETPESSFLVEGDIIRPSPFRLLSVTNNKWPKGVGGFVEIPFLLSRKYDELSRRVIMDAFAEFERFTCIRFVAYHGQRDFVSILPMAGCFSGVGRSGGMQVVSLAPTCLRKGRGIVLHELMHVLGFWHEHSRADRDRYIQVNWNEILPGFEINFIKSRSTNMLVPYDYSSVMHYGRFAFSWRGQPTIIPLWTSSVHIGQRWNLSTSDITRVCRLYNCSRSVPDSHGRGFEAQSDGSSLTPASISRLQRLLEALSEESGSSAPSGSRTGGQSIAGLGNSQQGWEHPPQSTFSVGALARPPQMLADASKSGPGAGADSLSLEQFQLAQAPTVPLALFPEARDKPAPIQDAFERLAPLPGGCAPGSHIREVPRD
# T1 sequence (Q9D9X8 94-221 partner limits assumed): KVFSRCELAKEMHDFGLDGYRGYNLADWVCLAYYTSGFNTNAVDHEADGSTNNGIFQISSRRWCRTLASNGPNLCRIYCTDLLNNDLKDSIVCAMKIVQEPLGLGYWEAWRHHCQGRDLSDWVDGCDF
# B1: recmSLLP1: mature mouse SLLP1, residues 94 to 221, six-histidine C terminal tag, expressed in E. coli, about 15 kDa (protein)
# chain: T1 sequence (Q9D9X8 94-221 partner limits assumed)
# modifications: left off: small tags and cut ends
# Legend:
# [1] = system: Metaphase II eggs; experiment: Egg labeling by indirect immunofluorescence; type: cell-based, mouse; details: 100 μg/ml protein, 45 min
# Method: Metaphase II eggs were obtained as previously described (Coonrod et al, 1999) and incubated with 5% NGS/media for 30 min. Oocytes were washed five times in TYH medium and incubated with 100 μg/ml recmSLLP1 or 100 μg/ml lysozymes for 45 min at 37° C. and 5% CO2. Oocytes were washed five times and incubated with guinea pig anti-recmSLLP1 polyclonal antibody (1:50), sheep anti-human lysozyme (1:25) or rabbit anti-chicken lysozyme (1:400) in 5% NGS/media for 1 h at 37° C. and 5% CO2. Oocytes were washed five times and incubated with donkey anti-guinea pig/Texas Red antibody (1:200) or goat anti-guinea pig/FITC antisera 1:200), donkey anti-sheep and goat anti-rabbit FITC-labeled secondary antibody (1:200) (Jackson ImmunoResearch), respectively in 5% NGS/media for 1 h at […] 37° C. and 5% CO2. Oocytes were washed and mounted in media onto glass slides and visualized under a Zeiss Standard 18 ultraviolet microscope. Images were captured by using MrGrab 1.0 (Carl Zeiss Vision GmbH, Germany).
# [2] = system: zona-free mouse eggs; experiment: In vitro fertilization with zona-free eggs (sperm-oolemma binding and fusion); type: cell-based
# [3] = molecular target: T1, rSAS1R; experiment: Far-Western analysis between SAS1R and SLLP1; type: binding
# Method: Purified rSAS1R on nitrocellulose membrane was overlaid or not with soluble rSLLP1, washed and probed with anti-SLLP1 antibody.
# Purified recombinant SAS1R was resolved by SDS-PAGE and transferred to nitrocellulose membranes. The membrane was probed with c-terminal anti-his monoclonal antibody and developed with TMB. Duplicate SAS1R blotted strips were overlaid with mouse rSLLP1 or not (with 5 μg/ml in blocking buffer i.e., 5% milk in PBS with 0.05% Tween 20 [PBST]) for 90 min at room temperature. Before protein overlay, the strips were incubated with blocking buffer for 1 h. Following overlay, the strips were incubated with either anti-SLLP1 (ADD2) monoclonal antibody for 1 h in blocking buffer. After washing in PBST (×4), the strips were probed with goat anti-mouse HRP secondary antibody in blocking buffer for 1 h, washed in PBST (×4) followed by PBS (×1), and developed with TMB.
# To that end, 7.0 μg of recombinant ZEP was loaded onto a 12% SDS gel, subjected to PAGE, and transferred to a nitrocellulose membrane. The membrane was overlaid (OL) with recombinant SLLP1 (2.0 μg/ml) and probed with anti-SLLP1 monoclonal antibody and secondary antibody.
# [4] = rSLLP1 overlay 5 μg/ml, anti-SLLP1 monoclonal antibody
molecule,measurement,setting,value
B1,fluorescence of mouse oocytes after incubation with protein and respective antibody,[1],fluorescent labeling within the perivitelline space and over much of the oocyte surface
same,percentages of motile spermatozoa compared to the control,[2],no difference
same,binding to recombinant ZEP bands,"[3]; 7.0 μg recombinant ZEP, recombinant SLLP1 overlay 2.0 μg/ml","signal was observed with the upper band of ZEP, but not with the lower band"
same,interaction with C-terminal SAS1R fragment (~25 kD),[3]; [4],very weakly
same,"interaction with full length SAS1R doublet (~51, ~50 kD)",[3]; [4],interacted strongly
